Results on eight molecules are retold here after patent US7966133B2, “Method of identifying a potential substrates of an O-methyltransferase” (The Salk Institute for Biological Studies, priority 2000, dated 2011).

Series [1] concerns nod genes. As to conditions: among compounds released from alfalfa roots; via nodD1 and nodD2; cited from earlier work.
For series [2] the following is noted: aqueous solution; cited from earlier work.
In series [3] the test system is ChOMT. In words: Qualitative enzyme activity assay, ChOMT (14C-SAM, TLC autoradiography). As to conditions: 20 μg protein, 500 μM 2′,4,4′-trihydroxychalcone, 500 μM 14C-SAM, 2 hr room temperature; FIG. 7A. The series is classed as biochemical, Medicago sativa L.
The test system of series [4] is IOMT. In words: Qualitative enzyme activity assay, IOMT (14C-SAM, TLC autoradiography). The series is classed as biochemical, Medicago sativa L. As to conditions: expressed in E. coli.

Changes are numbered by the printed parent chain. Names and notes keep the numbering of the source. “Also recorded” adds a separate entry of the source.

For the molecule `COc1cc(O)ccc1C(=O)/C=C/c1ccc(O)cc1` [4,4′-dihydroxy-2′-methoxychalcone], in series [1], the “transcriptional activation of nod genes” value was “most efficient transcriptional activator”.

Turning to `O=C1c2ccc(O)cc2OC(O)C1c1ccc(O)cc1` (centres unmarked) [2,7,4′-trihydroxyisoflavanone], the aqueous stability entry in series [2] is reported as “lack of aqueous stability; also recorded: unstable in aqueous solution”.

B1: H278L: ChOMT catalytic histidine mutant, His 278 to leucine (protein, listed as Medicago sativa)
chain: MGNSYITKEDNQISATSEQTEDSACLSAMVLTTNLVYPAVLNAAIDLNLFEIIAKATPPGAFMSPSEIASKLPASTQHSDLPNRLDRMLRLLASYSVLTSTTRTIEDGGAERVYGLSMVGKYLVPDESRGYLASFTTFLCYPALLQVWMNFKEAVVDEDIDLFKNVHGVTKYEFMGKDKKMNQIFNKSMVDVCATEMKRMLEIYTGFEGISTLVDVGGGSGRNLELIISKYPLIKGINFDLPQVIENAPPLSGIEHVGGDMFASVPQGDAMILKAVCLNWSDEKCIEFLSNCHKALSPNGKVIIVEFILPEEPNTSEESKLVSTLDNLMFITVGGRERTEKQYEKLSKLSGFSKFQVACRAFNSLGVMEFYK
Take B1: in series [3], the “methyltransferase activity of ChOMT His 278 mutants” value (shortened to “methyltransferase activity”) is “completely eliminated methyltransferase activity”.

B2: H278A: ChOMT catalytic histidine mutant, His 278 to alanine (protein, listed as Medicago sativa)
chain: B1 chain with L278A
With B2, the “methyltransferase activity” value in series [3] is “completely eliminated methyltransferase activity”.

B3: H278K: ChOMT catalytic histidine mutant, His 278 to lysine (protein, listed as Medicago sativa)
chain: B1 chain with L278K
Turning to B3, the “methyltransferase activity” value in series [3] is listed as “completely eliminated methyltransferase activity”.

B4: H278N: ChOMT catalytic histidine mutant, His 278 to asparagine (protein, listed as Medicago sativa)
chain: B1 chain with L278N
In the case of B4, in series [3], the “methyltransferase activity” value was “completely eliminated methyltransferase activity”.

B5: H278Q: ChOMT catalytic histidine mutant, His 278 to glutamine (protein, listed as Medicago sativa)
chain: B1 chain with L278Q
For the molecule B5, the “methyltransferase activity” value in series [3] was “completely eliminated methyltransferase activity”.

B6: IOMT: Isoflavone O-methyltransferase (SEQ ID NO:4) from Medicago sativa L, recombinant wild type (protein, listed as Medicago sativa)
chain: MASSINGRKPSEIFKAQALLYKHIYAFIDSMSLKWAVGMNIPNIIHNHGKPISLSNLVSILQVPSSKIGNVRRLMRYLAHNGFFEIITKEEESYALTVASELLVRGSDLCLAPMVECVLDPTLSGSYHELKKWIYEEDLTLFGVTLGSGFWDFLDKNPEYNTSFNDAMASDSKLINLALRDCDFVFDGLESIVDVGGGTGTTAKIICETFPKLKCIVFDRPQVVENLSGSNNLTYVGGDMFTSIPNADAVLLKYILHNWTDKDCLRILKKCKEAVTNDGKRGKVTIIDMVINEKKDENQVTQIKLLMDVNMACLNGKERNEEEWKKLFIEAGFQHYKISPLTGFLSLIEIYP
For B6, the “specific activity of recombinant IOMT” value in series [4] was “comparable to published values”.
